This is an account of results in the supplement of paper PMC10065799, “High-throughput profiling of sequence recognition by tyrosine kinases and SH2 domains using bacterial peptide display” (eLife, 2023).

The subject of one series is c-Abl (mouse). Briefly: phosphorylation enrichment, bacterial display (enrichment ratio); higher = better substrate or ligand; peptides without Tyr show the background.
The target of another series is Fes (UniProt P07332). Described as above.
In the next series the target is EPHB2 (UniProt P29323). The description is as above.
The target in the next series is EPHB1 (UniProt P54762). The description is as above.
A further series has as its target FGFR3 (UniProt P22607). The series is described as above.
A further series deals with Hck (UniProt P08631). Described as above.
The target of a further series is Fyn (UniProt P06241). The series is described as above.
Another series has as its system c-Src. The description is as above.
The test system of another series is Fer (mouse). The series is described as above.
Another series addresses Jak2 (UniProt O60674). Described as above.
The test system of the next series is AncSZ. The series is described as above.
The target of another series is MERTK (UniProt Q12866). The description is as above.
In a further series the target is FGFR1 (UniProt P11362). The series is described as above.
The target of a further series is Grb2 SH2 (UniProt P62993). As to the kind of experiment: SH2 binding enrichment of the phosphorylated peptide, bacterial display (enrichment ratio); higher = better substrate or ligand; peptides without Tyr show the background.
The target in a further series is c-Src SH2. Described as above.
Another series has as its target SHP2-C SH2. Described as above.
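Throughout, for SH2 binding enrichment of the phosphorylated peptide, bacterial display: peptide library displayed on the E. coli surface as eCPX fusions, selected cells deep-sequenced, score is each peptide's frequency after selection divided by its frequency in the input.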
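Throughout, for phosphorylation enrichment, bacterial display: 11-residue human phosphosite peptides and single-mutation variants displayed on the E. coli surface, counted by deep sequencing, each peptide's frequency after selection divided by its frequency in the unselected input library; frequency after pTyr selection over input frequency; kinase dosed for 20-30% of maximal phosphorylation in three min.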

Chain of Grb2 SH2 (P62993 whole entry, looked up): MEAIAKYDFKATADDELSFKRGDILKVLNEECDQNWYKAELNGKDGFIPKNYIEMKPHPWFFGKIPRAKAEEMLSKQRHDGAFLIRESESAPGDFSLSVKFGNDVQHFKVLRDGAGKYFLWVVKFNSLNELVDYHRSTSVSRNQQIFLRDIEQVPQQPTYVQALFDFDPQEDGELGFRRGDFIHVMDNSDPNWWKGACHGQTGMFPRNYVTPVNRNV
Chain of FGFR1 (P11362 whole entry, looked up): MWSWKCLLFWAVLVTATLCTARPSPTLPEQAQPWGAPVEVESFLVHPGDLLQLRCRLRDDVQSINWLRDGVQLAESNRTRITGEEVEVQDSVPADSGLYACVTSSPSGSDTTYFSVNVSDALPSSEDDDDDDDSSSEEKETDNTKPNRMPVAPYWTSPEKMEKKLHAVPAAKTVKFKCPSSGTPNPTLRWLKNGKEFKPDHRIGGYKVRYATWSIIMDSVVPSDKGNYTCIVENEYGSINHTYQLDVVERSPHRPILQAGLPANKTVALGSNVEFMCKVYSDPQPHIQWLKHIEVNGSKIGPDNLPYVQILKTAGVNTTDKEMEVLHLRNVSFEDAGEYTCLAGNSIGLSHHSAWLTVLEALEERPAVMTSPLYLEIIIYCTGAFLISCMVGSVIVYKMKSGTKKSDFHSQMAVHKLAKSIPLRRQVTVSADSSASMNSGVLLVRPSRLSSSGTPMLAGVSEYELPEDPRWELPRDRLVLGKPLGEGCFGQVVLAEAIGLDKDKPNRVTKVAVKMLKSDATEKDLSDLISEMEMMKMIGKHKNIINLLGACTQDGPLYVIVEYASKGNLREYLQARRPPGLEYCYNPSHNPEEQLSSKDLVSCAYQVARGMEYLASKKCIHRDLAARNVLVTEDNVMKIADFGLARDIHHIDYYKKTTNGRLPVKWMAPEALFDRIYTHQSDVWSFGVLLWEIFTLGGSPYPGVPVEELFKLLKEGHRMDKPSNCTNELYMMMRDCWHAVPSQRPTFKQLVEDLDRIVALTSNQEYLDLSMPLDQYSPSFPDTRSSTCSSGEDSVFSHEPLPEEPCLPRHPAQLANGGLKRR
Chain of EPHB1 (P54762 whole entry, looked up): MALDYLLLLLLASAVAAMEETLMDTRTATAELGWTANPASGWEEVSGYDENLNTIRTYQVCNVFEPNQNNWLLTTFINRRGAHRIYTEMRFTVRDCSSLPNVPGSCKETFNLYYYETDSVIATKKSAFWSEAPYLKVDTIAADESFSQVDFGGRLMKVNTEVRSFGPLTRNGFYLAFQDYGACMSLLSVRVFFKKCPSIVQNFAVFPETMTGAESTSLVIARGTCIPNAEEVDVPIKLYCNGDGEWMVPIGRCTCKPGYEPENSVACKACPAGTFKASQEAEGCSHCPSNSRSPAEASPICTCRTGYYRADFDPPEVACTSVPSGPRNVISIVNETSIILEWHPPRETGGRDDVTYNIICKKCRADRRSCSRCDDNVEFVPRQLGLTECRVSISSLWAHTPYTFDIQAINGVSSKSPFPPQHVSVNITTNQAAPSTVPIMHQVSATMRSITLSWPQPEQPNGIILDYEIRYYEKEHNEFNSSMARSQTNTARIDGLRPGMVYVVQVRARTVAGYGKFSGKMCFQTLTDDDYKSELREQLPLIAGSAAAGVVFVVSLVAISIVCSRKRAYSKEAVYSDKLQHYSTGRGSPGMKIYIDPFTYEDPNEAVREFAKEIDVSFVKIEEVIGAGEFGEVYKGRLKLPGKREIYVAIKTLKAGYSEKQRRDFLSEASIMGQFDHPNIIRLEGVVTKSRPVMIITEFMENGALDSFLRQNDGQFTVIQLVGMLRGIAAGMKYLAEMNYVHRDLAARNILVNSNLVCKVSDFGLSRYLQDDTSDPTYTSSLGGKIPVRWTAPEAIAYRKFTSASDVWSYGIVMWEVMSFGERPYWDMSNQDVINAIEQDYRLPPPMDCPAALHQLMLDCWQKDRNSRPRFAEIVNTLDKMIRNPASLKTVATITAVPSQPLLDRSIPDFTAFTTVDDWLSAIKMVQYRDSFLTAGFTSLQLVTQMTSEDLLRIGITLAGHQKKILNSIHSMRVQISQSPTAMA
Chain of EPHB2 (P29323 whole entry, looked up): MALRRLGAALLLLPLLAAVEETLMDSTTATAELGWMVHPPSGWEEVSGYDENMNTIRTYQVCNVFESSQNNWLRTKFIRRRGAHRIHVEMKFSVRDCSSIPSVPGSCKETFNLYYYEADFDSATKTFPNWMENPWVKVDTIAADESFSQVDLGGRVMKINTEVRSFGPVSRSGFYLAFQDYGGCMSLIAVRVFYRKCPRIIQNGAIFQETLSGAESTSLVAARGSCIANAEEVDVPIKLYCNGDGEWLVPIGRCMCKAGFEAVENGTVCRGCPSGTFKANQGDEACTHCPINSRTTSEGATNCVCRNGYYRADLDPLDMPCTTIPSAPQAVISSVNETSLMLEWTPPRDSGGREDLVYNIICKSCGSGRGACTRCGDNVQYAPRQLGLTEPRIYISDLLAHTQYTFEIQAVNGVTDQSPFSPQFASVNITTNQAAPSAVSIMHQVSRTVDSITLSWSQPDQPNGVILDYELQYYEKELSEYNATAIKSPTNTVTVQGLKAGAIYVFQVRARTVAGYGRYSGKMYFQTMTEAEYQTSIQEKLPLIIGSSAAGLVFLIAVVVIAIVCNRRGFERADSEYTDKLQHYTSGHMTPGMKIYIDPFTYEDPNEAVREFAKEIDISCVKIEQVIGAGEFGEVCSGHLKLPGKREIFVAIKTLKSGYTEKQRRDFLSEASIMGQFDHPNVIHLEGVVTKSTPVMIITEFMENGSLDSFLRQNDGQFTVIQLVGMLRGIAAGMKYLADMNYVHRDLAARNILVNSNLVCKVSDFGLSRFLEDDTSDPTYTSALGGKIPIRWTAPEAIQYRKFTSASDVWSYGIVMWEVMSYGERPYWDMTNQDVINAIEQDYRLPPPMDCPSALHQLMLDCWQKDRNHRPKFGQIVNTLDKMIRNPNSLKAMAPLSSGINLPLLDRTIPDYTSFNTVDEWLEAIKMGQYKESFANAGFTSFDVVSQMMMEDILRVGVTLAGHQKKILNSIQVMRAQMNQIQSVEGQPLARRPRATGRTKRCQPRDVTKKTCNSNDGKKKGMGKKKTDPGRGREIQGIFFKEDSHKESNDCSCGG
Chain of Hck (P08631 whole entry, looked up): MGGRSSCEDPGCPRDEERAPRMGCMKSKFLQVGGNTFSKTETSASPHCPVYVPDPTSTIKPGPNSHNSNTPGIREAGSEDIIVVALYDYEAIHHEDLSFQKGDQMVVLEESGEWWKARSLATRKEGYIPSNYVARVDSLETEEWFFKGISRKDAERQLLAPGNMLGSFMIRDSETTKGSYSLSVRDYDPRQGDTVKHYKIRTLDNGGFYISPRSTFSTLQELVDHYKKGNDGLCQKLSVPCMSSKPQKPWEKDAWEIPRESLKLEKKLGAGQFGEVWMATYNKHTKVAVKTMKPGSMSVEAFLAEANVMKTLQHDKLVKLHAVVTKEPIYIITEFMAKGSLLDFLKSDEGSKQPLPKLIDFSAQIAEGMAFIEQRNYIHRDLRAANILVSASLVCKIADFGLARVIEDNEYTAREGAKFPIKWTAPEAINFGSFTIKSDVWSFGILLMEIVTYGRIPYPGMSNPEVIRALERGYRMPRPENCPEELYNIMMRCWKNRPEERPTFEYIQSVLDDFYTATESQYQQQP
Chain of Jak2 (O60674 whole entry, looked up): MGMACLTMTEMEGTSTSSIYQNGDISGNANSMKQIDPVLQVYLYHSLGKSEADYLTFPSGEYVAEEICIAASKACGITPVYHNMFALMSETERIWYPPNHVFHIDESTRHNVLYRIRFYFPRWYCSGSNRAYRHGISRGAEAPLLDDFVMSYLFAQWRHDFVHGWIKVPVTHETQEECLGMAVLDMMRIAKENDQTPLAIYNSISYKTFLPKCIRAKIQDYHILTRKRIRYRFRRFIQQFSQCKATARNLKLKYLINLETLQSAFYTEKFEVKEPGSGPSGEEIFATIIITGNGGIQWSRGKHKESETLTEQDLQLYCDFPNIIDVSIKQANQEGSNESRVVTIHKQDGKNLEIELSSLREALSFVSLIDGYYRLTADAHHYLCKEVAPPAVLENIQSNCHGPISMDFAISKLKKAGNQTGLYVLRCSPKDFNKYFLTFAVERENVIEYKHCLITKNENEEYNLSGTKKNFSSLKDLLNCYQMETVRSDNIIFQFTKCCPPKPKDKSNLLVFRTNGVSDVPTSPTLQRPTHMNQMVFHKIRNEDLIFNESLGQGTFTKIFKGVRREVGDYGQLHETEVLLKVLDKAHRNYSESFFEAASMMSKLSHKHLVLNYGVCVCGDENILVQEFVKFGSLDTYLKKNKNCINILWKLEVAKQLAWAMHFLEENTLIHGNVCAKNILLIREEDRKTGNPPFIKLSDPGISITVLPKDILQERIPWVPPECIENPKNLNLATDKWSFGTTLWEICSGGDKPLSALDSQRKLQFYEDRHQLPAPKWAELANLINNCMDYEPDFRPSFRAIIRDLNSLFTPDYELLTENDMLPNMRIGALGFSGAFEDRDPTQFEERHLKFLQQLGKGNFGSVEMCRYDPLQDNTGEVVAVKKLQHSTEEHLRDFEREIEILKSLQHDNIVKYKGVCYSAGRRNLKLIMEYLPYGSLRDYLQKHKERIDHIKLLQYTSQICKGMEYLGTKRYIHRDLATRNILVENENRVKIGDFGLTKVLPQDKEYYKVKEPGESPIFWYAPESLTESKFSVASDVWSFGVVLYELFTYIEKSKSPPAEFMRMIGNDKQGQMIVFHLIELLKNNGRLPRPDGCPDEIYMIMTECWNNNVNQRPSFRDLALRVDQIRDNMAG

Take EIEFLYNENMV [IARS1_Y680_T684M]: the phosphorylation enrichment with c-Abl (mouse) was 0.62; with Fes, 1.11; with EPHB2, 0.678; in the series with EPHB1, 0.595; with FGFR3 it was 0.693; in the series with Hck, 0.526. Further, the phosphorylation enrichment in the series with Fyn came out at 0.484; with c-Src it was 0.421; in the series on Fer (mouse), 0.526; with Jak2, 1.07; with AncSZ, 1.21; with MERTK, 0.411. For the same sequence, in the series with FGFR1, the phosphorylation enrichment was found to be 0.418. In addition, the values for the SH2 binding enrichment in the series with Grb2 SH2, with c-Src SH2 and with SHP2-C SH2 were 0.727, 0.592 and 0.882, respectively.

On to EKFVPYFDLFM [IPO5_Y530_YF], for which the phosphorylation enrichment turned out to be 0.858 in the series with c-Abl (mouse); 1.35 with Fes; 0.652 with EPHB2; 1.06 in the series with EPHB1; 1.71 in the series with FGFR3; 0.581 with Hck. The phosphorylation enrichment with Fyn turned out to be 0.57; in the series with c-Src it was 0.596; with Fer (mouse), 0.608; with Jak2 it was 1.32; in the series on AncSZ, 1.33; with MERTK, 0.444. Besides, the phosphorylation enrichment with FGFR1 came out at 1.74. Also, the SH2 binding enrichment in the series with Grb2 SH2 was found to be 1.05; in the series with c-Src SH2, 1.11; with SHP2-C SH2, 0.827.

On to EKGSNYCLCRT [ASIC2_Y357_D354G], for which the phosphorylation enrichment with c-Abl (mouse) came to 0.56; in the series with Fes, 0.607; in the series with EPHB2, 0.45; with EPHB1 it was 0.47; in the series with FGFR3 it was 0.497; with Hck, 0.349. Moreover, the phosphorylation enrichment with Fyn worked out at 0.504; in the series with c-Src it was 0.393; in the series on Fer (mouse) it was 0.378; with Jak2 it was 0.572; in the series on AncSZ, 0.732; with MERTK, 0.458. Further, the phosphorylation enrichment with FGFR1 was found to be 0.469. Besides, the SH2 binding enrichment with Grb2 SH2 turned out to be 0.947; with c-Src SH2 it was 0.645; with SHP2-C SH2, 0.806.

Turning to EKLQKYYRQNP [EHHADH_Y682], the phosphorylation enrichment in the series on c-Abl (mouse) came out at 0.581; in the series with Fes, 0.667; with EPHB2, 0.543; in the series with EPHB1, 0.568; with FGFR3 it was 0.497; with Hck, 0.408. Moreover, the phosphorylation enrichment was found to be 0.391 with Fyn; 0.428 with c-Src; 0.367 in the series with Fer (mouse); 0.55 with Jak2; 0.523 in the series on AncSZ; 0.371 with MERTK. For the same sequence, the phosphorylation enrichment with FGFR1 was 0.509. The results for the SH2 binding enrichment with Grb2 SH2, in the series with c-Src SH2 and in the series with SHP2-C SH2 were 0.927, 0.548 and 0.746, respectively.

With EKNANYKEGTY [CLRN1_Y171_I168N], the phosphorylation enrichment in the series on c-Abl (mouse) is 0.451; with Fes, 0.617; in the series with EPHB2, 0.387; with EPHB1, 0.378; with FGFR3, 0.4; in the series with Hck, 0.356. Moreover, the phosphorylation enrichment worked out at 0.403 with Fyn; 0.426 with c-Src; 0.363 in the series with Fer (mouse); 0.575 with Jak2; 0.517 with AncSZ; 0.372 with MERTK. Further, in the series with FGFR1, the phosphorylation enrichment amounted to 0.383. The figures for the SH2 binding enrichment with Grb2 SH2, with c-Src SH2 and with SHP2-C SH2 were 0.963, 0.538 and 0.774, respectively.

With EKQLLYLENKT [FRK_Y132_S133L], the phosphorylation enrichment with c-Abl (mouse) was determined as 0.41; in the series with Fes it was 0.985; in the series with EPHB2 it was 0.44; with EPHB1 it was 0.567; with FGFR3 it was 0.589; with Hck, 0.459. Further, the phosphorylation enrichment with Fyn turned out to be 0.467; with c-Src, 0.356; with Fer (mouse) it was 0.405; with Jak2 it was 0.672; with AncSZ it was 0.712; with MERTK, 0.337. Besides, the phosphorylation enrichment in the series with FGFR1 came out at 0.398. Also, the SH2 binding enrichment with Grb2 SH2 came to 0.881; with c-Src SH2, 0.467; with SHP2-C SH2, 0.631.

With ELANFYKLHHI [AK7_Y391_YF], the phosphorylation enrichment with c-Abl (mouse) came out at 0.8; with Fes, 1.06; in the series with EPHB2, 0.863; in the series with EPHB1, 0.638; with FGFR3 it was 0.672; with Hck, 0.796. In addition, the phosphorylation enrichment turned out to be 0.689 in the series with Fyn; 0.819 with c-Src; 0.874 in the series on Fer (mouse); 0.922 with Jak2; 0.63 with AncSZ; 0.67 in the series with MERTK. Moreover, in the series with FGFR1, the phosphorylation enrichment amounted to 0.561. Besides, the results for the SH2 binding enrichment with Grb2 SH2, with c-Src SH2 and with SHP2-C SH2 were 0.901, 0.481 and 1.01, respectively.

Consider ELANLYHHVWM [BICD2_Y538_C542W], for which the phosphorylation enrichment was determined as 0.918 with c-Abl (mouse); 1.25 in the series with Fes; 1.93 in the series with EPHB2; 6.35 with EPHB1; 4.76 in the series with FGFR3; 5.11 with Hck. Moreover, the phosphorylation enrichment in the series with Fyn stood at 2.75; in the series on c-Src it was 2.51; in the series with Fer (mouse) it was 12.9; in the series with Jak2, 1.3; with AncSZ, 1.32; in the series with MERTK, 6.21. For the same sequence, in the series with FGFR1, the phosphorylation enrichment was determined as 6.38. Moreover, the SH2 binding enrichment was found to be 0.869 with Grb2 SH2, 0.816 with c-Src SH2 and 0.835 with SHP2-C SH2.

On to ELQDDYEDMME [SLC4A1_Y8], for which the phosphorylation enrichment in the series with c-Abl (mouse) was found to be 0.56; in the series with Fes it was 1.07; in the series with EPHB2, 0.558; with EPHB1, 0.646; in the series with FGFR3, 0.718; with Hck, 0.659. Moreover, the phosphorylation enrichment with Fyn is 0.542; in the series on c-Src, 0.415; in the series with Fer (mouse), 0.549; with Jak2 it was 0.956; in the series on AncSZ it was 1.16; with MERTK, 0.451. The phosphorylation enrichment with FGFR1 is 0.566. For the same sequence, the SH2 binding enrichment with Grb2 SH2 turned out to be 0.907; with c-Src SH2 it was 0.747; with SHP2-C SH2 it was 0.665.
